Measured values: US20240190962A1 (IMMUNOWAKE, published 2024)

Legend:
CD8 on CD8+ T cells = biological target: T1, CD8 on CD8+ T cells (UniProt P01732 22-235); assay: FACS
T1 construct: whole, on cells

[1] = biological target: human IL-12 receptor complex (IL-12Rβ1, IL-12Rβ2) (human, UniProt P42701 24-662; Q99665 24-862); assay: cell-based or functional assay
human IL-12 receptor complex (IL-12Rβ1, IL-12Rβ2), sequence (Q99665 24-862, chain 2 of 2, other chains not shown): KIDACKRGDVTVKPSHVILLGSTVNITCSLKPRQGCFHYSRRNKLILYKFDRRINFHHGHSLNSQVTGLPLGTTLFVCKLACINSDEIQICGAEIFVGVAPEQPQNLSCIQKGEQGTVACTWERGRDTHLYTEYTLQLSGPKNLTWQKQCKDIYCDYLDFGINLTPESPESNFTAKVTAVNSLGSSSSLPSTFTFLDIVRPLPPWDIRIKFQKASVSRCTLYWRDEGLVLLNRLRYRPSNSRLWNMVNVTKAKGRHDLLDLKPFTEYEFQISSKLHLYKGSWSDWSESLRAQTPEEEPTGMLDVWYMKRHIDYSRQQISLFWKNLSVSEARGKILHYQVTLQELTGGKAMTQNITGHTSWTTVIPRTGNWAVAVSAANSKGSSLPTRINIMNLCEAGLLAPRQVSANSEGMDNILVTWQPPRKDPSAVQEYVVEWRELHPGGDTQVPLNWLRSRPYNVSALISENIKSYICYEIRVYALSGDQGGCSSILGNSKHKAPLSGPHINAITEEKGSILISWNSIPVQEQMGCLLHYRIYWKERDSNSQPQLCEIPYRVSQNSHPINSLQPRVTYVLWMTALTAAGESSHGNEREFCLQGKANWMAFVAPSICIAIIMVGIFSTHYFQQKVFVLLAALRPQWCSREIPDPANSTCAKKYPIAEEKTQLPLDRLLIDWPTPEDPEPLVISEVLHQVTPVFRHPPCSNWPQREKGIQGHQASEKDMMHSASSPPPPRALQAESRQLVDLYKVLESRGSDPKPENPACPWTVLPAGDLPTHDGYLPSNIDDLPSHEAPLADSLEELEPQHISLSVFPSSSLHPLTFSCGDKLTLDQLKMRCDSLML

T1 sequence (P01732 22-235): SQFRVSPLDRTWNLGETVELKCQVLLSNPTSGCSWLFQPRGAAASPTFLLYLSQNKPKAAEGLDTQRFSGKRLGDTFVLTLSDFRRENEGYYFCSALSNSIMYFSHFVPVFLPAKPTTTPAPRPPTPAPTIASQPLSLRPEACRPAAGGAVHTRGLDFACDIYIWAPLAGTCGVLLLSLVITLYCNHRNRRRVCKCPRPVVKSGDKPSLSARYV

| Binder | binding result (CD8 on CD8+ T cells) | IL-12 biological activity (IFN-γ release), CD4+ T cells [1] | IL-12 biological activity (IFN-γ release), CD8+ T cells [1] |
| --- | --- | --- | --- |
| Fab-IL-12(WT)-Fc-CD4 Ab (other, copies: 2 + 1 + 1) light: not shown heavy 1: QVQLQQSGPEVVKPGASVKMSCKASGYTFTSYVIHWVRQKPGQGLDWIGYINPYNDGTDYDEKFKGKATLTSDTSTSTAYMELSSLRSEDTAVYYCAREKDNYATGAWFAYWGQGTLVTVSSASTKGPSVFPLAPSSKSTSGGTAALGCLVKDYFPEPVTVSWNSGALTSGVHTFPAVLQSSGLYSLSSVVTVPSSSLGTQTYICNVNHKPSNTKVDKKVEPKSCDKTHTCPPCPAPEKKGGPSVFLFPPKPKDTLMISRTPEVTCVVVDVSHEDPEVKFNWYVDGVEVHNAKTKPREEQYNSTYRVVSVLTVLHQDWLNGKEYKCKVSNKALPAPIEKTISKAKGQPREPQVYVLPPSREEMTKNQVSLLCLVKGFYPSDIAVEWESNGQPENRYMTWPPVLDSDGSFFLYSKLTVDKSRWQQGNVFSCSVMHEALHNHYTQKSLSLSPGK heavy 2: QVQLQQSGPEVVKPGASVKMSCKASGYTFTSYVIHWVRQKPGQGLDWIGYINPYNDGTDYDEKFKGKATLTSDTSTSTAYMELSSLRSEDTAVYYCAREKDNYATGAWFAYWGQGTLVTVSSASTKGPSVFPLAPSSKSTSGGTAALGCLVKDYFPEPVTVSWNSGALTSGVHTFPAVLQSSGLYSLSSVVTVPSSSLGTQTYICNVNHKPSNTKVDKKVEPKSCDKPGSGIWELKKDVYVVELDWYPDAPGEMVVLTCDTPEEDGITWTLDQSSEVLGSGKTLTIQVKEFGDAGQYTCHKGGEVLSHSLLLLHKKEDGIWSTDILKDQKEPKNKTFLRCEAKNYSGRFTCWWLTTISTDLTFSVKSSRGSSDPQGVTCGAATLSAERVRGDNKEYEYSVECQEDSACPAAEESLPIEVMVDAVHKLKYENYTSSFFIRDIIKPDPPKNLQLKPLKNSRQVEVSWEYPDTWSTPHSYFSLTFCVQVQGKSKREKKDRVFTDKTSATVICRKNASISVRAQDRYYSSSWSEWASVPCSGGGGSGGGGSGGGGSGGGGSGRNLPVATPDPGMFPCLHHSQNLLRAVSNMLQKARQTLEFYPCTSEEIDHEDITKDKTSTVEACLPLELTKNESCLNSRETSFITNGSCLASRKTSFMMALCLSSIYEDLKMYQVEFKTMNAKLLMDPKRQIFLDQNMLAVIDELMQALNFNSETVPQKSSLEEPDFYKTKIKLCILLHAFRIRAVTIDRVMSYLNASDKTHTCPPCPAPEDEGGPSVFLFPPKPKDTLMISRTPEVTCVVVDVSHEDPEVKFNWYVDGVEVHNAKTKPREEQYNSTYRVVSVLTVLHQDWLNGKEYKCKVSNKALPAPIEKTISKAKGQPREPQVYVYPPSREEMTKNQVSLTCLVKGFYPSDIAVEWESNGQPENNYKTTPPVLDEDGSFALVSKLTVDKSRWQQGNVFSCSVMHEALHNHYTQKSLSLSPGK | no binding | 43% | 25% |
| Fab-IL-12(E59A)-Fc-CD4 Ab (other, copies: 2 + 1 + 1) light: not shown heavy 1: QVQLQQSGPEVVKPGASVKMSCKASGYTFTSYVIHWVRQKPGQGLDWIGYINPYNDGTDYDEKFKGKATLTSDTSTSTAYMELSSLRSEDTAVYYCAREKDNYATGAWFAYWGQGTLVTVSSASTKGPSVFPLAPSSKSTSGGTAALGCLVKDYFPEPVTVSWNSGALTSGVHTFPAVLQSSGLYSLSSVVTVPSSSLGTQTYICNVNHKPSNTKVDKKVEPKSCDKTHTCPPCPAPEKKGGPSVFLFPPKPKDTLMISRTPEVTCVVVDVSHEDPEVKFNWYVDGVEVHNAKTKPREEQYNSTYRVVSVLTVLHQDWLNGKEYKCKVSNKALPAPIEKTISKAKGQPREPQVYVLPPSREEMTKNQVSLLCLVKGFYPSDIAVEWESNGQPENRYMTWPPVLDSDGSFFLYSKLTVDKSRWQQGNVFSCSVMHEALHNHYTQKSLSLSPGK heavy 2: QVQLQQSGPEVVKPGASVKMSCKASGYTFTSYVIHWVRQKPGQGLDWIGYINPYNDGTDYDEKFKGKATLTSDTSTSTAYMELSSLRSEDTAVYYCAREKDNYATGAWFAYWGQGTLVTVSSASTKGPSVFPLAPSSKSTSGGTAALGCLVKDYFPEPVTVSWNSGALTSGVHTFPAVLQSSGLYSLSSVVTVPSSSLGTQTYICNVNHKPSNTKVDKKVEPKSCDKPGSGIWELKKDVYVVELDWYPDAPGEMVVLTCDTPEEDGITWTLDQSSEVLGSGKTLTIQVKAFGDAGQYTCHKGGEVLSHSLLLLHKKEDGIWSTDILKDQKEPKNKTFLRCEAKNYSGRFTCWWLTTISTDLTFSVKSSRGSSDPQGVTCGAATLSAERVRGDNKEYEYSVECQEDSACPAAEESLPIEVMVDAVHKLKYENYTSSFFIRDIIKPDPPKNLQLKPLKNSRQVEVSWEYPDTWSTPHSYFSLTFCVQVQGKSKREKKDRVFTDKTSATVICRKNASISVRAQDRYYSSSWSEWASVPCSGGGGSGGGGSGGGGSGGGGSGRNLPVATPDPGMFPCLHHSQNLLRAVSNMLQKARQTLEFYPCTSEEIDHEDITKDKTSTVEACLPLELTKNESCLNSRETSFITNGSCLASRKTSFMMALCLSSIYEDLKMYQVEFKTMNAKLLMDPKRQIFLDQNMLAVIDELMQALNFNSETVPQKSSLEEPDFYKTKIKLCILLHAFRIRAVTIDRVMSYLNASDKTHTCPPCPAPEDEGGPSVFLFPPKPKDTLMISRTPEVTCVVVDVSHEDPEVKFNWYVDGVEVHNAKTKPREEQYNSTYRVVSVLTVLHQDWLNGKEYKCKVSNKALPAPIEKTISKAKGQPREPQVYVYPPSREEMTKNQVSLTCLVKGFYPSDIAVEWESNGQPENNYKTTPPVLDEDGSFALVSKLTVDKSRWQQGNVFSCSVMHEALHNHYTQKSLSLSPGK | no binding | 29.8% | 1.1% |
| Fab-IL-12(F60A)-Fc-CD4 Ab (other, copies: 2 + 1 + 1) light: not shown heavy 1: QVQLQQSGPEVVKPGASVKMSCKASGYTFTSYVIHWVRQKPGQGLDWIGYINPYNDGTDYDEKFKGKATLTSDTSTSTAYMELSSLRSEDTAVYYCAREKDNYATGAWFAYWGQGTLVTVSSASTKGPSVFPLAPSSKSTSGGTAALGCLVKDYFPEPVTVSWNSGALTSGVHTFPAVLQSSGLYSLSSVVTVPSSSLGTQTYICNVNHKPSNTKVDKKVEPKSCDKTHTCPPCPAPEKKGGPSVFLFPPKPKDTLMISRTPEVTCVVVDVSHEDPEVKFNWYVDGVEVHNAKTKPREEQYNSTYRVVSVLTVLHQDWLNGKEYKCKVSNKALPAPIEKTISKAKGQPREPQVYVLPPSREEMTKNQVSLLCLVKGFYPSDIAVEWESNGQPENRYMTWPPVLDSDGSFFLYSKLTVDKSRWQQGNVFSCSVMHEALHNHYTQKSLSLSPGK heavy 2: QVQLQQSGPEVVKPGASVKMSCKASGYTFTSYVIHWVRQKPGQGLDWIGYINPYNDGTDYDEKFKGKATLTSDTSTSTAYMELSSLRSEDTAVYYCAREKDNYATGAWFAYWGQGTLVTVSSASTKGPSVFPLAPSSKSTSGGTAALGCLVKDYFPEPVTVSWNSGALTSGVHTFPAVLQSSGLYSLSSVVTVPSSSLGTQTYICNVNHKPSNTKVDKKVEPKSCDKPGSGIWELKKDVYVVELDWYPDAPGEMVVLTCDTPEEDGITWTLDQSSEVLGSGKTLTIQVKEAGDAGQYTCHKGGEVLSHSLLLLHKKEDGIWSTDILKDQKEPKNKTFLRCEAKNYSGRFTCWWLTTISTDLTFSVKSSRGSSDPQGVTCGAATLSAERVRGDNKEYEYSVECQEDSACPAAEESLPIEVMVDAVHKLKYENYTSSFFIRDIIKPDPPKNLQLKPLKNSRQVEVSWEYPDTWSTPHSYFSLTFCVQVQGKSKREKKDRVFTDKTSATVICRKNASISVRAQDRYYSSSWSEWASVPCSGGGGSGGGGSGGGGSGGGGSGRNLPVATPDPGMFPCLHHSQNLLRAVSNMLQKARQTLEFYPCTSEEIDHEDITKDKTSTVEACLPLELTKNESCLNSRETSFITNGSCLASRKTSFMMALCLSSIYEDLKMYQVEFKTMNAKLLMDPKRQIFLDQNMLAVIDELMQALNFNSETVPQKSSLEEPDFYKTKIKLCILLHAFRIRAVTIDRVMSYLNASDKTHTCPPCPAPEDEGGPSVFLFPPKPKDTLMISRTPEVTCVVVDVSHEDPEVKFNWYVDGVEVHNAKTKPREEQYNSTYRVVSVLTVLHQDWLNGKEYKCKVSNKALPAPIEKTISKAKGQPREPQVYVYPPSREEMTKNQVSLTCLVKGFYPSDIAVEWESNGQPENNYKTTPPVLDEDGSFALVSKLTVDKSRWQQGNVFSCSVMHEALHNHYTQKSLSLSPGK | no binding | 32.2% | 1.5% |
| Fab-IL-12(E59A/F60A)-Fc-CD4 Ab (other) light: not shown heavy 1: QVQLQQSGPEVVKPGASVKMSCKASGYTFTSYVIHWVRQKPGQGLDWIGYINPYNDGTDYDEKFKGKATLTSDTSTSTAYMELSSLRSEDTAVYYCAREKDNYATGAWFAYWGQGTLVTVSSASTKGPSVFPLAPSSKSTSGGTAALGCLVKDYFPEPVTVSWNSGALTSGVHTFPAVLQSSGLYSLSSVVTVPSSSLGTQTYICNVNHKPSNTKVDKKVEPKSCDKTHTCPPCPAPEKKGGPSVFLFPPKPKDTLMISRTPEVTCVVVDVSHEDPEVKFNWYVDGVEVHNAKTKPREEQYNSTYRVVSVLTVLHQDWLNGKEYKCKVSNKALPAPIEKTISKAKGQPREPQVYVLPPSREEMTKNQVSLLCLVKGFYPSDIAVEWESNGQPENRYMTWPPVLDSDGSFFLYSKLTVDKSRWQQGNVFSCSVMHEALHNHYTQKSLSLSPGK heavy 2: QVQLQQSGPEVVKPGASVKMSCKASGYTFTSYVIHWVRQKPGQGLDWIGYINPYNDGTDYDEKFKGKATLTSDTSTSTAYMELSSLRSEDTAVYYCAREKDNYATGAWFAYWGQGTLVTVSSASTKGPSVFPLAPSSKSTSGGTAALGCLVKDYFPEPVTVSWNSGALTSGVHTFPAVLQSSGLYSLSSVVTVPSSSLGTQTYICNVNHKPSNTKVDKKVEPKSCDKPGSGIWELKKDVYVVELDWYPDAPGEMVVLTCDTPEEDGITWTLDQSSEVLGSGKTLTIQVKAAGDAGQYTCHKGGEVLSHSLLLLHKKEDGIWSTDILKDQKEPKNKTFLRCEAKNYSGRFTCWWLTTISTDLTFSVKSSRGSSDPQGVTCGAATLSAERVRGDNKEYEYSVECQEDSACPAAEESLPIEVMVDAVHKLKYENYTSSFFIRDIIKPDPPKNLQLKPLKNSRQVEVSWEYPDTWSTPHSYFSLTFCVQVQGKSKREKKDRVFTDKTSATVICRKNASISVRAQDRYYSSSWSEWASVPCSGGGGSGGGGSGGGGSGGGGSGRNLPVATPDPGMFPCLHHSQNLLRAVSNMLQKARQTLEFYPCTSEEIDHEDITKDKTSTVEACLPLELTKNESCLNSRETSFITNGSCLASRKTSFMMALCLSSIYEDLKMYQVEFKTMNAKLLMDPKRQIFLDQNMLAVIDELMQALNFNSETVPQKSSLEEPDFYKTKIKLCILLHAFRIRAVTIDRVMSYLNASDKTHTCPPCPAPEDEGGPSVFLFPPKPKDTLMISRTPEVTCVVVDVSHEDPEVKFNWYVDGVEVHNAKTKPREEQYNSTYRVVSVLTVLHQDWLNGKEYKCKVSNKALPAPIEKTISKAKGQPREPQVYVYPPSREEMTKNQVSLTCLVKGFYPSDIAVEWESNGQPENNYKTTPPVLDEDGSFALVSKLTVDKSRWQQGNVFSCSVMHEALHNHYTQKSLSLSPGK | no binding | 8.2% | 0% |
